Columns and labels:
[1] = biological target: T1, recombinant human Her2 ECD (Human Her2/ErbB2 protein, catalog #10004-HCCH, Sino Biological Inc.) (human, UniProt P04626 23-652); assay: SPR (Biacore T200), HER2 ECD immobilised on CM5, anti-HER2/CD3 TDB as analyte
T1 construct: extracellular domain; also called HER2 antigen; HER2 target

[2] = biological target: T1, recombinant human Her2 ECD (Human …); assay: SPR (Biacore), conditions of Example 1, HER2 ECD immobilized on CM5 chip
[3] = biological target: T1, recombinant human Her2 ECD (Human …); assay: SPR (Biacore), conditions of Example 1, human Her2 ECD immobilized on CM5 chip

B1: 4D5v3-40G5 anti-HER2/CD3 TDB (bispecific antibody, V domains shown)
VH 1: not shown
VL 1: not shown
VH 2: EVQLVQSGAEVKKPGASVKVSCKASGYTFTNYYIHWVRQAPGQGLEWIGWIYPGDGNTKYNEKFKGRATLTADTSTSTAYLELSSLRSEDTAVYYCARDSYSNYYFDYWGQGTLVTVSS
VL 2: DIVMTQSPDSLAVSLGERATINCKSSQSLLNSRTRKNYLAWYQQKPGQPPKLLIYWASTRESGVPDRFSGSGSGTDFTLTISSLQAEDVAVYYCTQSFILRTFGQGTKVEIK
notes: also called HER2 TDB
For B1, which “fold affinity relative to wildtype 4D5 TDB” value [1] is on record?
Its value is about 10 fold.

What about the Kd [2] of the same binder?
Its Kd is 0.06 nM.

What about the Kd [3] of the same binder?
Its Kd is 0.04 nM.
